Data taken from US20060074018A1, “Methods of diagnosing & treating diabetes and insulin resistance” (Metabolex Inc, priority 2002, published 2006).

Experiments:
TIEG expression = test: Real time PCR analysis of muscle samples, TIEG; type: in vivo, human; conditions: mean post-Tro/mean pre-Tro
Description: (§1) The gene expression changes observed in the human muscle samples derived from lean and diabetic individuals or from diabetic individuals post-Troglitazone treatment, were further confirmed by the use of real-time quantitative PCR. A combination of specific PCR primers and a Taqman probe were designed to detect and quantify expression levels for each gene. Relative gene expression levels were determined in this manner in each patient and the mean expression level in either the lean or diabetic patient population was then calculated.

TIEG mRNA = test: Gene expression profiling of muscle samples on custom Affymetrix chips, probe set mbxhummus23808; type: in vivo, human; conditions: muscle of diabetics, Basal sample
From the text: (§2) The molecular mechanism by which thiazolidinediones (TZDs) cause an increase in peripheral insulin sensitivity was studied. Genes in muscle or fat whose expression is altered by TZDs may lie on a pathway leading from TZD treatment to increased insulin sensitivity. Modulators of such genes can elicit the same effect as TZD treatment. Moreover, such modulators can lack some of the side effects of TZD. The majority of glucose disposal occurs in muscle. For this reason, gene expression profiling in human muscle from diabetics treated with troglitazone was used to identify genes important for TZD action and therefore treatment of diabetes and insulin resistance. […] The gene expression profile for each individual was determined by hybridization of cRNA to custom synthesized Affymetrix chips. Gene expression profile differences were calculated as follows. […] The raw data was analyzed by a statistical test to remove ‘outliers’. The mean ‘average difference score’ was then calculated from the average difference scores for all individuals in a particular treatment group. Genes were determined to be changed in condition 1 (such as basal diabetics before trogliazone (tro) treatment) versus condition 2 (such as basal diabetics after troglitazone treatment) by calculating the Students t test statistic between the two conditions and selecting those with t less than or equal to 0.05. […]

[1] = test system: connective tissue growth factor (CTGF) mRNA; test: Gene expression profiling of muscle samples on custom Affymetrix chips, probe set mbxhummus 24330; type: in vivo, human; conditions: muscle of diabetics, Clamp sample
From the text: as §2

CTGF expression = test: Real time PCR analysis of muscle samples, CTGF; type: in vivo, human; conditions: mean post-Tro/mean pre-Tro
Description: as §1

3T3-L1 adipocytes [2] = test: Glut 4 translocation analysis; type: cell-based, murine; conditions: for Fold Change (Mean hCTGF/Mean LacZ), cells positive for cell surface Glut 4 / Fold Change (Mean hTIEG/Mean LacZ), cells positive for cell surface Glut 4: n = 3; for Glut 4 translocation with insulin (in words) / Basal Glut 4 translocation (in words): over-expression in 3T3-L1 adipocytes; for Glut 4 translocation with insulin (in words): all insulin concentrations tested; for Basal Glut 4 translocation (in words): no insulin
From the text: One analysis called “Glut 4 translocation” involves over-expressing the gene in 3T3-L1 adipocytes and then monitoring the ability of insulin to cause the movement (translocation) of the major insulin-regulated glucose transporter, Glut 4, to the cell surface. The cDNA encoding the human gene was sub-cloned into the mammalian expression vector pcDNA3.1 which provides for a V5 epitope tag. This plasmid encoding the human gene was then introduced into differentiated murine 3T3-L1 adipocytes along with a cloned Glut 4 expression construct using an electroporation procedure essentially as described in Kanzaki et al. J. Biol. Chem 275 7167-7175 (2000). A plasmid expressing LacZ was used as a negative control. After stimulation with increasing concentrations of insulin, cells co-expressing both the human gene and cloned Glut 4 were scored for the presence of Glut 4 at the cell surface using fluorescence microscopy.

3T3-L1 adipocytes [3] = test: Glucose transport analysis in 3T3-L1 adipocytes; type: cell-based, murine
Description: (§3) In some instances another analysis called “glucose transport” was used. This involves over-expressing the gene in either differentiated 3T3-L1 adipocytes or differentiated L6 myotubes and then monitoring the ability of insulin to stimulate glucose transport into these two cell types. A recombinant adenovirus encoding the human gene tagged with a FLAG epitope tag was prepared essentially as described in Zhou et al. Proc. Nat. Acad. Sci. USA. 95: 2509-2514. 3T3-L1 adipocytes or L6 myotubes were infected with recombinant adenovims expressing the human gene. A virus expressing an irrelevant protein was used as the control. 24 h post-infection the cells are stimulated with increasing concentrations of insulin and glucose transport into the cells determined by the counting the accumulation of a radiolabelled glucose analog (2-deoxyglucose) essentially as describe in Kotani et al. Mol Cell. Biol. 18 6971-6982 (1998), Fujishiro et al. J. Biol. Chem. 276 19800-19806 (2001), Ross et al. Biochem. Biophys. Res. Commun. 302 354-358 (2003).

L6 myotubes = test: Glucose transport analysis in L6 myotubes; type: cell-based
Description: as §3

[4] = 3 months of Troglitazone treatment
[5] = after 3 months of Troglitazone treatment, mean average difference score

For `Cc1c(C)c2c(c(C)c1O)CCC(C)(COc1ccc(CC3SC(=O)NC3=O)cc1)O2` (stereo not drawn) [Troglitazone, troglitazone], the “Expression Fold change, TIEG, Diabetics + Tro/Diabetics − Tro” value (TIEG expression) was 0.69, the “Fold Change diabetic post-trog/diabetic pre-trog (TIEG)” value (TIEG mRNA; [4]) was 0.65 and the “Diabetic Post-Trog Mean Expr (TIEG)” value (TIEG mRNA; [5]) was 2634. The “Fold Change diabetic post tro/diabetic pre tro (Connective Tissue Growth Factor)” value [1, 4] was 0.07, the “Diabetic Post-Trog Mean Expr (Connective Tissue Growth Factor)” value [1, 5] was 29 and the “Expression Fold change, CTGF, Diabetics + Tro/Diabetics − Tro” value (CTGF expression) was 0.35.

B1: hCTGF: human Connective Tissue Growth Factor (SEQ ID NO:2) over-expressed in cells from pcDNA3.1 plasmid or recombinant adenovirus (protein, listed as Homo sapiens)
chain: MTAASMGPVRVAFVVLLALCSRPAVGQNCSGPCRCPDEPAPRCPAGVSLVLDGCGCCRVCAKQLGELCTERDPCDPHKGLFCDFGSPANRKIGVCTAKDGAPCIFGGTVYRSGESFQSSCKYQCTCLDGAVGCMPLCSMDVRLPSPDCPFPRRVKLPGKCCEEWVCDEPKDQTVVGPALAAYRLEDTFGPDPTMIRANCLVQTTEWSACSKTCGMGISTRVTNDNASCRLEKQSRLCMVRPCEADLEENIKKGKKCIRTPKISKPIKFELSGCTSMKTYRAKFCGVCTDGRCCTPHRTTTLPVEFKCPDGEVMKKNMMFIKTCACHYNCPGDNDIFESLYYRKMYGDMA
modifications: human connective tissue growth factor (CTGF)
For B1, the “Fold Change (Mean hCTGF/Mean LacZ), cells positive for cell surface Glut 4” value (“Fold Change (Mean hCTGF/Mean LacZ)” for short) (3T3-L1 adipocytes [2]; Insulin 0 nM) was 0.97, the “Fold Change (Mean hCTGF/Mean LacZ)” value (3T3-L1 adipocytes [2]; Insulin 1 nM) was 0.35 and the “Fold Change (Mean hCTGF/Mean LacZ)” value (3T3-L1 adipocytes [2]; Insulin 10 nM) was 0.45. The “Glut 4 translocation with insulin (in words)” value (3T3-L1 adipocytes [2]) was “significantly inhibited Glut 4 translocation at all insulin concentrations tested”, the “Basal Glut 4 translocation (in words)” value (3T3-L1 adipocytes [2]) was “little or no effect on basal Glut 4 translocation” and the “FC (hCTGF/Con) glucose transport” value (3T3-L1 adipocytes [3]; Expt 1, Insulin 0 nM) was 0.7. For the same molecule, the “FC (hCTGF/Con) glucose transport” value (3T3-L1 adipocytes [3]; Expt 1, Insulin 0.05 nM) was 0.6, the “FC (hCTGF/Con) glucose transport” value (3T3-L1 adipocytes [3]; Expt 1, Insulin 0.1 nM) was 0.6 and the “FC (hCTGF/Con) glucose transport” value (3T3-L1 adipocytes [3]; Expt 1, Insulin 0.3 nM) was 0.7. The “FC (hCTGF/Con) glucose transport” value (3T3-L1 adipocytes [3]; Expt 1, Insulin 1 nM) was 0.8, the “FC (hCTGF/Con) glucose transport” value (3T3-L1 adipocytes [3]; Expt 1, Insulin 10 nM) was 0.6 and the “FC (hCTGF/Con) glucose transport” value (3T3-L1 adipocytes [3]; Expt 2, Insulin 0 nM) was 0.6. For the same molecule, the “FC (hCTGF/Con) glucose transport” value (3T3-L1 adipocytes [3]; Expt 2, Insulin 0.05 nM) was 0.6, the “FC (hCTGF/Con) glucose transport” value (3T3-L1 adipocytes [3]; Expt 2, Insulin 0.1 nM) was 0.7 and the “FC (hCTGF/Con) glucose transport” value (3T3-L1 adipocytes [3]; Expt 2, Insulin 0.3 nM) was 0.8. For the same molecule, the “FC (hCTGF/Con) glucose transport” value (3T3-L1 adipocytes [3]; Expt 2, Insulin 1 nM) was 0.8, the “FC (hCTGF/Con) glucose transport” value (3T3-L1 adipocytes [3]; Expt 2, Insulin 10 nM) was 0.7 and the “FC (hCTGF/Con) glucose transport” value (3T3-L1 adipocytes [3]; Expt 3, Insulin 0 nM) was 0.8. For the same molecule, the “FC (hCTGF/Con) glucose transport” value (3T3-L1 adipocytes [3]; Expt 3, Insulin 0.05 nM) was 0.7, the “FC (hCTGF/Con) glucose transport” value (3T3-L1 adipocytes [3]; Expt 3, Insulin 0.1 nM) was 0.7 and the “FC (hCTGF/Con) glucose transport” value (3T3-L1 adipocytes [3]; Expt 3, Insulin 0.3 nM) was 0.8. The “FC (hCTGF/Con) glucose transport” value (3T3-L1 adipocytes [3]; Expt 3, Insulin 1 nM) was 0.9, the “FC (hCTGF/Con) glucose transport” value (3T3-L1 adipocytes [3]; Expt 3, Insulin 10 nM) was 0.9 and the “Mean FC (hCTGF/Con) +/− SEM (n = 3) glucose transport” value (shortened to “Mean FC (hCTGF/Con) +/− SEM”) (3T3-L1 adipocytes [3]; Insulin 0 nM) was 0.70 +/− 0.03. The “Mean FC (hCTGF/Con) +/− SEM” value (3T3-L1 adipocytes [3]; Insulin 0.05 nM) was 0.63 +/− 0.06, the “Mean FC (hCTGF/Con) +/− SEM” value (3T3-L1 adipocytes [3]; Insulin 0.1 nM) was 0.67 +/− 0.02 and the “Mean FC (hCTGF/Con) +/− SEM” value (3T3-L1 adipocytes [3]; Insulin 0.3 nM) was 0.76 +/− 0.05. For the same molecule, the “Mean FC (hCTGF/Con) +/− SEM” value (3T3-L1 adipocytes [3]; Insulin 1 nM) was 0.83 +/− 0.02, the “Mean FC (hCTGF/Con) +/− SEM” value (3T3-L1 adipocytes [3]; Insulin 10 nM) was 0.75 +/− 0.10 and the “Glucose transport (in words)” value (3T3-L1 adipocytes [3]; over-expression in 3T3-L1 adipocytes, basal and insulin stimulated) was “inhibited both basal and insulin stimulated glucose transport”. The “FC (hCTGF/Con) glucose transport” value (L6 myotubes; Expt 1, Insulin 0 nM) was 0.78, the “FC (hCTGF/Con) glucose transport” value (L6 myotubes; Expt 1, Insulin 10 nM) was 0.67 and the “FC (hCTGF/Con) glucose transport” value (L6 myotubes; Expt 1, Insulin 100 nM) was 0.70. For the same molecule, the “FC (hCTGF/Con) glucose transport” value (L6 myotubes; Expt 2, Insulin 0 nM) was 0.79, the “FC (hCTGF/Con) glucose transport” value (L6 myotubes; Expt 2, Insulin 10 nM) was 0.92 and the “FC (hCTGF/Con) glucose transport” value (L6 myotubes; Expt 2, Insulin 100 nM) was 1.05. For the same molecule, the “FC (hCTGF/Con) glucose transport” value (L6 myotubes; Expt 3, Insulin 0 nM) was 0.79, the “FC (hCTGF/Con) glucose transport” value (L6 myotubes; Expt 3, Insulin 10 nM) was 0.77 and the “FC (hCTGF/Con) glucose transport” value (L6 myotubes; Expt 3, Insulin 100 nM) was 0.74. For the same molecule, the “Mean FC (CTGF/Con) +/− SEM (n = 3) glucose transport” value (“Mean FC (CTGF/Con) +/− SEM” below) (L6 myotubes; Insulin 0 nM) was 0.79 +/− 0.004, the “Mean FC (CTGF/Con) +/− SEM” value (L6 myotubes; Insulin 10 nM) was 0.79 +/− 0.07 and the “Mean FC (CTGF/Con) +/− SEM” value (L6 myotubes; Insulin 100 nM) was 0.83 +/− 0.11. The “Glucose transport (in words)” value (L6 myotubes; over-expression in L6 myotubes, basal and insulin stimulated) was “inhibited both basal and insulin stimulated glucose transport”.

B2: hTIEG: human TIEG (SEQ ID NO:8) over-expressed in 3T3-L1 adipocytes from pcDNA3.1 plasmid (protein, listed as Homo sapiens)
chain: MEERMEMISERPKESMYSWNKTAEKSDFEAVEALMSMSCSWKSDFKKYVENRPVTPVSDLSEEENLLPGTPDFHTIPAFCLTPPYSPSDFEPSQVSNLMAPAPSTVHFKSLSDTAKPHIAAPFKEEEKSPVSAPKLPKAQATSVIRHTADAQLCNHQTCPMKAASILNYQNNSFRRRTHLNVEAARKNIPCAAVSPNRSKCERNTVADVDEKASAALYDFSVPSSETVICRSQPAPVSPQQKSVLVSPPAVSAGGVPPMPVICQMVPLPANNPVVTTVVPSTPPSQPPAVCPPVVFMGTQVPKGAVMFVVPQPVVQSSKPPVVSPNGTRLSPIAPAPGFSPSAAKVTPQIDSSRIRSHICSHPGCGKTYFKSSHLKAHTRTHTGEKPFSCSWKGCERRFARSDELSRHRRTHTGEKKFACPMCDRRFMRSDHLTKHARRHLSAKKLPNWQMEVSKLNDIALPPTPAPTQ
modifications: human transforming growth factor-beta (TGFB) inducible early growth response (TIEG)
For B2, the “Fold Change (Mean hTIEG/Mean LacZ), cells positive for cell surface Glut 4” value (from here on “Fold Change (Mean hTIEG/Mean LacZ)”) (3T3-L1 adipocytes [2]; Insulin 0 nM) was 1.34, the “Fold Change (Mean hTIEG/Mean LacZ)” value (3T3-L1 adipocytes [2]; Insulin 1 nM) was 0.20 and the “Fold Change (Mean hTIEG/Mean LacZ)” value (3T3-L1 adipocytes [2]; Insulin 10 nM) was 0.11. The “Glut 4 translocation with insulin (in words)” value (3T3-L1 adipocytes [2]) was “significantly inhibited Glut 4 translocation at all insulin concentrations tested” and the “Basal Glut 4 translocation (in words)” value (3T3-L1 adipocytes [2]) was “little or no effect on basal Glut 4 translocation”.
